Assay results taken from IntAct's records for PubMed 17474147.

B1: 1-phosphatidylinositol 4,5-bisphosphate phosphodiesterase gamma-1 (Homo sapiens), P19174 (parent)
chain: MAGAASPCANGCGPGAPSDAEVLHLCRSLEVGTVMTLFYSKKSQRPERKTFQVKLETRQITWSRGADKIEGAIDIREIKEIRPGKTSRDFDRYQEDPAFRPDQSHCFVILYGMEFRLKTLSLQATSEDEVNMWIKGLTWLMEDTLQAPTPLQIERWLRKQFYSVDRNREDRISAKDLKNMLSQVNYRVPNMRFLRERLTDLEQRSGDITYGQFAQLYRSLMYSAQKTMDLPFLEASTLRAGERPELCRVSLPEFQQFLLDYQGELWAVDRLQVQEFMLSFLRDPLREIEEPYFFLDEFVTFLFSKENSVWNSQLDAVCPDTMNNPLSHYWISSSHNTYLTGDQFSSESSLEAYARCLRMGCRCIELDCWDGPDGMPVIYHGHTLTTKIKFSDVLHTIKEHAFVASEYPVILSIEDHCSIAQQRNMAQYFKKVLGDTLLTKPVEISADGLPSPNQLKRKILIKHKKLAEGSAYEEVPTSMMYSENDISNSIKNGILYLEDPVNHEWYPHYFVLTSSKIYYSEETSSDQGNEDEEEPKEVSSSTELHSNEKWFHGKLGAGRDGRHIAERLLTEYCIETGAPDGSFLVRESETFVGDYTLSFWRNGKVQHCRIHSRQDAGTPKFFLTDNLVFDSLYDLITHYQQVPLRCNEFEMRLSEPVPQTNAHESKEWYHASLTRAQAEHMLMRVPRDGAFLVRKRNEPNSYAISFRAEGKIKHCRVQQEGQTVMLGNSEFDSLVDLISYYEKHPLYRKMKLRYPINEEALEKIGTAEPDYGALYEGRNPGFYVEANPMPTFKCAVKALFDYKAQREDELTFIKSAIIQNVEKQEGGWWRGDYGGKKQLWFPSNYVEEMVNPVALEPEREHLDENSPLGDLLRGVLDVPACQIAIRPEGKNNRLFVFSISMASVAHWSLDVAADSQEELQDWVKKIREVAQTADARLTEGKIMERRKKIALELSELVVYCRPVPFDEEKIGTERACYRDMSSFPETKAEKYVNKAKGKKFLQYNRLQLSRIYPKGQRLDSSNYDPLPMWICGSQLVALNFQTPDKPMQMNQALFMTGRHCGYVLQPSTMRDEAFDPFDKSSLRGLEPCAISIEVLGARHLPKNGRGIVCPFVEIEVAGAEYDSTKQKTEFVVDNGLNPVWPAKPFHFQISNPEFAFLRFVVYEEDMFSDQNFLAQATFPVKGLKTGYRAVPLKNNYSEDLELASLLIKIDIFPAKENGDLSPFSGTSLRERGSDASGQLFHGRAREGSFESRYQQPFEDFRISQEHLADHFDSRERRAPRRTRVNGDNRL
partner: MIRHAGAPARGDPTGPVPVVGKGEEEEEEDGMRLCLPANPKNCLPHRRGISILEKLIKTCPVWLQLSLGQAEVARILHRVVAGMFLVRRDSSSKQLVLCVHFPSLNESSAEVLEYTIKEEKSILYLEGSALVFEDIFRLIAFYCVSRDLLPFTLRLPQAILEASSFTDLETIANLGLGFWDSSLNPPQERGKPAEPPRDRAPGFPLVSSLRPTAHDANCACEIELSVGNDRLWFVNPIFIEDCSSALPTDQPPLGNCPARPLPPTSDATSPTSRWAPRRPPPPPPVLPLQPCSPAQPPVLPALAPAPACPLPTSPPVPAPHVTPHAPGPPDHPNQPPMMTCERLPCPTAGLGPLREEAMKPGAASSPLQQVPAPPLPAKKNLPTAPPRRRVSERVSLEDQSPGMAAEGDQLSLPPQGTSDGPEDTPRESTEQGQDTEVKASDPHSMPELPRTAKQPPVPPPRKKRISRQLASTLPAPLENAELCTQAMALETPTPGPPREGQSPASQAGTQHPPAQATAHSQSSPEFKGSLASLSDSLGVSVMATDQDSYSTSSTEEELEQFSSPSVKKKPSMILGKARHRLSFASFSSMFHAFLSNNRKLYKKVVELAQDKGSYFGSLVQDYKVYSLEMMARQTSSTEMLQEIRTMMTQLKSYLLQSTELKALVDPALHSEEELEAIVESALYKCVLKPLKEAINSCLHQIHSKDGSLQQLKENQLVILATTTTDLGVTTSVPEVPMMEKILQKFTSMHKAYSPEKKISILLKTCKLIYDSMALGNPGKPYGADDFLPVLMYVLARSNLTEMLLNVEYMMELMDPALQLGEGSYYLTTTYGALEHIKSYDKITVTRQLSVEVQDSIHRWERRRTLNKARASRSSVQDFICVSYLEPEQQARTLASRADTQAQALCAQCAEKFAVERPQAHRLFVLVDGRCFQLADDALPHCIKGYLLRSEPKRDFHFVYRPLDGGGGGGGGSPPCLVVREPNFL
B2: 1-phosphatidylinositol 4,5-bisphosphate phosphodiesterase gamma-1 (Homo sapiens), P19174 (parent)
chain: B1 chain

Tests used:
rin3_human RIN3, Q8TB24 = variants of: B1; settings: with rin3_human RIN3, Q8TB24
[1] = variants of: B2; settings: with asap2_human ASAP2, O43150
abl2_human ABL2, P42684 = variants of: B2; settings: with abl2_human ABL2, P42684
[2] = variants of: B2; settings: with shan2_human SHANK2, Q9UPX8
[3] = variants of: B2; settings: with m4k1_human MAP4K1, Q92918
m4k1_human MAP4K1, Q92918, sequence (Q92918 whole entry, looked up): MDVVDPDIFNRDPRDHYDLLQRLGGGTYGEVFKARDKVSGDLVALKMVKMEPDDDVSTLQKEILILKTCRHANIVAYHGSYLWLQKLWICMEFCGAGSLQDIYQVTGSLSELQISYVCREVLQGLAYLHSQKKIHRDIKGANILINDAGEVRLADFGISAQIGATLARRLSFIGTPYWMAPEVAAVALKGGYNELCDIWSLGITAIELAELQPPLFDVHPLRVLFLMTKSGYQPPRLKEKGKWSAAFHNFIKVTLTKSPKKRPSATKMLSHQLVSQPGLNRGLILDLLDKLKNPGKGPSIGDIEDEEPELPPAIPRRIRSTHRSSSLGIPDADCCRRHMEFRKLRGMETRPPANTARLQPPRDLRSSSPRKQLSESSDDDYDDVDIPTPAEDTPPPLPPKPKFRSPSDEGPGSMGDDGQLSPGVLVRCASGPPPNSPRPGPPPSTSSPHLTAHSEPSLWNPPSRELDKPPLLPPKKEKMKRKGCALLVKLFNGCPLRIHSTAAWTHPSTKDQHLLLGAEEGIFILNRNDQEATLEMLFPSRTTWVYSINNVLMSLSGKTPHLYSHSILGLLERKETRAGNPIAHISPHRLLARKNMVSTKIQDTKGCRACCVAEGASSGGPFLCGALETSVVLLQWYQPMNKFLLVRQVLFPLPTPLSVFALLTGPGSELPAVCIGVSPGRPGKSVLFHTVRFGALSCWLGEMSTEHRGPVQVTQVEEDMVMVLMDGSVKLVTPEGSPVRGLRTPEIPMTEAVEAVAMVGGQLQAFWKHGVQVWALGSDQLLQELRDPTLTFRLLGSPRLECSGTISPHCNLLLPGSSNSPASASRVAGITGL

shan2_human SHANK2, Q9UPX8, sequence (Q9UPX8 whole entry): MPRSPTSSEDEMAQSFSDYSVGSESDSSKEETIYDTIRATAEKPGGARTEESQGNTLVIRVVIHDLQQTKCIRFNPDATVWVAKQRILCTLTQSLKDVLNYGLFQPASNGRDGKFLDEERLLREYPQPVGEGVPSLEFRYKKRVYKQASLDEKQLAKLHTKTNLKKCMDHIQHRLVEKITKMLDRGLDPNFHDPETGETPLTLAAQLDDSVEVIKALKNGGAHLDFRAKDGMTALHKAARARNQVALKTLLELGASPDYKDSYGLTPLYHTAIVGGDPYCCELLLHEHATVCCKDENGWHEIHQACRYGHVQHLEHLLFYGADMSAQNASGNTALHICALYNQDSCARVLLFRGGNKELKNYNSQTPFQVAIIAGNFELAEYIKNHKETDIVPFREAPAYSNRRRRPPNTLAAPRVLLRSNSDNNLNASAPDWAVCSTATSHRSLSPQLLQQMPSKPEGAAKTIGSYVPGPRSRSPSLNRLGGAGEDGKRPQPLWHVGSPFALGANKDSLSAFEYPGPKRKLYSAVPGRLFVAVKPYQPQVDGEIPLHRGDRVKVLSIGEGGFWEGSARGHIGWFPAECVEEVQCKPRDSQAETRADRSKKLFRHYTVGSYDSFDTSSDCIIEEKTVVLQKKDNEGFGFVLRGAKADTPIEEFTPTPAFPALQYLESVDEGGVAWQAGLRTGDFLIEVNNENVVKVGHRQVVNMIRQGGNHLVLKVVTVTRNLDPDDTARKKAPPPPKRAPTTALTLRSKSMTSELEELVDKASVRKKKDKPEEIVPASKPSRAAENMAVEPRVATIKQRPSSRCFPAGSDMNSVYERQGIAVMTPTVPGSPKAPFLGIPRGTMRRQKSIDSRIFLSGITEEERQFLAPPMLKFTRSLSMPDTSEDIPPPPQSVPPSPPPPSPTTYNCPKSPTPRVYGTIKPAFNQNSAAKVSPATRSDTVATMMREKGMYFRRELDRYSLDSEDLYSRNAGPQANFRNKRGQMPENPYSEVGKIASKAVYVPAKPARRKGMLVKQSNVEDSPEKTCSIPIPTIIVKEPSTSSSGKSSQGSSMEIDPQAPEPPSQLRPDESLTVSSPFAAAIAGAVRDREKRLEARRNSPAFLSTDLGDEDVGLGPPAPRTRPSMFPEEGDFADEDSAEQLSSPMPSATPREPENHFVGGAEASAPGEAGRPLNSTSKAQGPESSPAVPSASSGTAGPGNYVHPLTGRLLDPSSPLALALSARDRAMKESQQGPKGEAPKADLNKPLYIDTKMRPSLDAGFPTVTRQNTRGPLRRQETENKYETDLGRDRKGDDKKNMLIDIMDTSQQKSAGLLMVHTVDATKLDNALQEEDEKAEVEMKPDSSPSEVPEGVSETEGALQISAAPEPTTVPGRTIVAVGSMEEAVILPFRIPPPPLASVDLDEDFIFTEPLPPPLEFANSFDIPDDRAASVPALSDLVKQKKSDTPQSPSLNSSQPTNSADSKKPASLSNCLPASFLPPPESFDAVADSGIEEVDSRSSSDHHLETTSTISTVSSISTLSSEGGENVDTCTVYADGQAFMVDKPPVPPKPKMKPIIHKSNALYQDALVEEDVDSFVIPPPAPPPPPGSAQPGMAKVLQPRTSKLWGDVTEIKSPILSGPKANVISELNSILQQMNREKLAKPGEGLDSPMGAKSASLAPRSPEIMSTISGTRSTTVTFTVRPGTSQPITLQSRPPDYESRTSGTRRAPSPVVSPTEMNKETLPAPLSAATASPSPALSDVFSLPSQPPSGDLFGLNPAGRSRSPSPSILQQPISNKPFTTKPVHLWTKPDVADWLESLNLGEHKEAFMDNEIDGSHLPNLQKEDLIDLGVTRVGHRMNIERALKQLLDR
abl2_human ABL2, P42684, sequence (P42684 whole entry): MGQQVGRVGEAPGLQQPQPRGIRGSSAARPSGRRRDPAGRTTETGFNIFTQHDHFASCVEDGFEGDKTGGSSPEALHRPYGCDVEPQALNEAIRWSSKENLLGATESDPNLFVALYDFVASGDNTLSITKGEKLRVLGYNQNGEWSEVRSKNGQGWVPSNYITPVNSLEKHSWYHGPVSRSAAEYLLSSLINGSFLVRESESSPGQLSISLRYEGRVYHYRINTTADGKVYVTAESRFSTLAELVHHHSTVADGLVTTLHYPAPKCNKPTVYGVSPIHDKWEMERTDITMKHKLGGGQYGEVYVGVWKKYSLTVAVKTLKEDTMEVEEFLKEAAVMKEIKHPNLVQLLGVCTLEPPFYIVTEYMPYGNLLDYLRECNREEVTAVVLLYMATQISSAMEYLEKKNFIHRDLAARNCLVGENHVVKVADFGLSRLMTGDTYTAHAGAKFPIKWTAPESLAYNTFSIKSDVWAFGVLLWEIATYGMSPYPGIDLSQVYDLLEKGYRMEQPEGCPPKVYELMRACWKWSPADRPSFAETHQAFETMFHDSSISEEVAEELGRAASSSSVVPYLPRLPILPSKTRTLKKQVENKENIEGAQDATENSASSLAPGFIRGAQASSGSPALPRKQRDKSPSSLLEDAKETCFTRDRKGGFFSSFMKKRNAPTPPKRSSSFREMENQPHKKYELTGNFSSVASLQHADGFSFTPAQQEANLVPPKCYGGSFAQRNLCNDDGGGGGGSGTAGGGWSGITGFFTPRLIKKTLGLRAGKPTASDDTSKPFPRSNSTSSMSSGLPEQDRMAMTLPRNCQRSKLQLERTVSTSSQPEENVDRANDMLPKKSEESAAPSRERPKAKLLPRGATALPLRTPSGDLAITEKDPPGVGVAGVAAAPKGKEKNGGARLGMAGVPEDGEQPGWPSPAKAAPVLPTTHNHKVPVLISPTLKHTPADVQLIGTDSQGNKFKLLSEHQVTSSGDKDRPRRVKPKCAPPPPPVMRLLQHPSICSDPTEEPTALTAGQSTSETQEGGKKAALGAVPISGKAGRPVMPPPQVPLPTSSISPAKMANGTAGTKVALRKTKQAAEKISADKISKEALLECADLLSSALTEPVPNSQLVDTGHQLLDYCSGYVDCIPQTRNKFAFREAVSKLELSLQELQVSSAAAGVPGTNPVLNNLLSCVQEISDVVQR
asap2_human ASAP2, O43150, sequence (O43150 whole entry): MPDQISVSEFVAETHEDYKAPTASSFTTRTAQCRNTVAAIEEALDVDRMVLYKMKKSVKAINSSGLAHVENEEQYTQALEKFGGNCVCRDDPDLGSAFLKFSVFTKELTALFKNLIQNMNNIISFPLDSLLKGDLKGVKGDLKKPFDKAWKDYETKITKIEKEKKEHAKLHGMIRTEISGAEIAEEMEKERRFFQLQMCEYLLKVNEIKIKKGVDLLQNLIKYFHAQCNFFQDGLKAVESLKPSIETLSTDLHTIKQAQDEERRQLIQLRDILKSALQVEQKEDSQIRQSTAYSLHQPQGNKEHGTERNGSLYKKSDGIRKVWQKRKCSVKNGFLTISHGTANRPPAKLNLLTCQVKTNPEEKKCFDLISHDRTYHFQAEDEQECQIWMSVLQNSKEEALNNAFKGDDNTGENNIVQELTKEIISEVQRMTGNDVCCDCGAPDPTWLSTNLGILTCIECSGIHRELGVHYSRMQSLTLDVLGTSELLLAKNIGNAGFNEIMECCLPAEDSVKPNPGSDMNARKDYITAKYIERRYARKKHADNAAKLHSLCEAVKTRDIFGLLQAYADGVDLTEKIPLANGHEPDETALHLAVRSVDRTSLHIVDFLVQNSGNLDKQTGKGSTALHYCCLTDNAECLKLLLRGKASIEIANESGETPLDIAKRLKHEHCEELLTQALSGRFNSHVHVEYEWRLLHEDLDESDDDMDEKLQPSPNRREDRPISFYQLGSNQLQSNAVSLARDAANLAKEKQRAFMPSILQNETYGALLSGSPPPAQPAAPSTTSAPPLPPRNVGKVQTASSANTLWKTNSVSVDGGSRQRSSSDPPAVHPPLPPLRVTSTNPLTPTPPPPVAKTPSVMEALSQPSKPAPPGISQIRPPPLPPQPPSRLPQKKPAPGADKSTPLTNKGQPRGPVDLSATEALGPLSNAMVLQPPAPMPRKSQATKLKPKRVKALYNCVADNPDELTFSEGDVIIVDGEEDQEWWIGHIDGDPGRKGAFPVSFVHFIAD

| effect of a mutation on the interaction (rin3_human RIN3, Q8TB24) | effect of a mutation on the interaction [1] | effect of a mutation on the interaction (abl2_human ABL2, P42684) | effect of a mutation on the interaction [2] | effect of a mutation on the interaction [3] | Variant |
| --- | --- | --- | --- | --- | --- |
| disrupting interaction | – | – | – | – | W828A |
| – | disrupting interaction | disrupting interaction | disrupting interaction | disrupting interaction | W828A |
